# Laboratory results taken from patent US20220112276A1 (Janssen / Centocor, published 2022).
# Columns and labels:
# [1] = biological target: T1, human pIgR extracellular domain (ECD) (human, UniProt P01833 19-638); test: SPR, VHH captured by anti-Fc, ECD analyte
# T1 construct: Bought from R&D Systems (Cat 2717-PG-050); also called hpIgR ECD
# Method: (§1) In an assay, two flow cells of the SPR were used, in which the flow cell 1 ran the buffer reference, and the flow cell 2 ran the analyte. […] The HBSP (GE) buffer was followed at a flow rate of 30 μL/min. Then, the VHHs were captured on the anti-human Fc protein surface at 0.5 ug/ml (˜200-300 RU) on the flow cell 2. The running buffer was changed to HBSP with 100 ug/ml BSA after the capture. Next, the pIgR extracellular domains were used as analyte and loaded in a series of concentrations, starting at 30 nM with further 3-fold dilution series.
# (§2) The extracellular domains were prepared as follows: cynomolgus monkey and rat extracellular domains were produced and characterized in house; mouse and human pIgR extracellular domains were purchased from R&D Systems (Cat #2800-PG-050 & 2717-PG-050 respectively). The pIgR extracellular domains were injected from low to high concentration using a single-cycle kinetics method. The off-rate was monitored at 30 minutes after the last or highest concentration injection. The reference run was completed under the same conditions except that the pIgR injection was replaced by buffer injection.
# (§3) The raw data were processed by subtracting two sets of reference data from the response data: (1) reference flow cell 1 subtracted from sample flow cell 2; and (2) buffer blank run subtracted from experimental run. The processed data at all concentrations for each VHH were globally fit to a 1:1 simple Langmuir binding model to extract estimates of the kinetic constants (kₒₙ, koff) and affinity constants (KD).
# [2] = biological target: T2, cynomolgus monkey pIgR extracellular domain (cynomolgus monkey, UniProt A0A2K5WMU9 19-638); test: SPR, VHH captured by anti-Fc, ECD analyte
# T2 construct: extracellular domain
# T2 sequence (A0A2K5WMU9 entry or part of it): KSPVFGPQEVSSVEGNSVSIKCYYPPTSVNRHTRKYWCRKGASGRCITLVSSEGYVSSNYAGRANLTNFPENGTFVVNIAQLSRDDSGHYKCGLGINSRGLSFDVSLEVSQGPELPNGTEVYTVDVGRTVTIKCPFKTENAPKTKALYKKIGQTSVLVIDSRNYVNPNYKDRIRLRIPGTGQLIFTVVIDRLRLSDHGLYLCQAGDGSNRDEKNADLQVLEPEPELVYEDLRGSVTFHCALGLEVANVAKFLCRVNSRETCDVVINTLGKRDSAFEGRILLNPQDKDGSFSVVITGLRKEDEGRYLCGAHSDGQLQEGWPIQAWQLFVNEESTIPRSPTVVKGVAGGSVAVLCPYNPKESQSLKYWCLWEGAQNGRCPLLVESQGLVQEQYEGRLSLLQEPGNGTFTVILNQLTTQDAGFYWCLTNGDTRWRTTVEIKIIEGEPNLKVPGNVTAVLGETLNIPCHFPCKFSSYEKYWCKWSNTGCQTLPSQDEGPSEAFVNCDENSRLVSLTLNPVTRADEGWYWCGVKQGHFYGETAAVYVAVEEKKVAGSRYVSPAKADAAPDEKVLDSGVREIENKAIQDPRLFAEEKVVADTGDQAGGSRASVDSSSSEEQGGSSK
# Method: as §1, §2, §3
# T1 sequence (P01833 other isoform, or with tags, fused parts or gaps): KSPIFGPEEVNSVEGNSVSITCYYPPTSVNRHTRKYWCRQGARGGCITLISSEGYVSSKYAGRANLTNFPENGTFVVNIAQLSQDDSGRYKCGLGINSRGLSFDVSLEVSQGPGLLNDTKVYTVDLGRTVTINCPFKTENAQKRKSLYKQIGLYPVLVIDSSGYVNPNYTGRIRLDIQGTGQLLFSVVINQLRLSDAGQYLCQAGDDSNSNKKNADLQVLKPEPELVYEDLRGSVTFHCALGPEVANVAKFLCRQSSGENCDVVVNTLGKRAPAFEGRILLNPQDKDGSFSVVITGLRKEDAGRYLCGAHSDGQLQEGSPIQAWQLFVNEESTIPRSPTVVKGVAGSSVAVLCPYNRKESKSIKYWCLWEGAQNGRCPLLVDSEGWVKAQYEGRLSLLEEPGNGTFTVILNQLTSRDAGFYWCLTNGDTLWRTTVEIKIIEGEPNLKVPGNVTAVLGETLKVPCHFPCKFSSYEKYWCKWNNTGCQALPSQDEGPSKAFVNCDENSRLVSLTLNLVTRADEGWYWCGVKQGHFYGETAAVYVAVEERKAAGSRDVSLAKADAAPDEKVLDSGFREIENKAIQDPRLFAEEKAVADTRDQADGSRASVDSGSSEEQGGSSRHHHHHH
Binder,Kd [1] [nM],Kd [2] [nM]
01D09R3 VHH Mono-Fc (Fc fusion) QVQLVESGGGLVQAGGSLRLSCAASGRTFSVYAMGWFRQAPGKERQFVAAITWSGGSTSYADSVKGRFTISRDNAKNTVYLQMNILKPEDTAVYYCAAATNPYFSDYYPDLKYEFDYWGQGTLVTVSSSPAPELLGGPSVFLFPPKPKDTLMISRTPEVTCVVVDVSHEDPEVKFNWYVDGVEVHNAKTKPREEQYNSTYRVVSVLTVLHQDWLNGKEYKCKVSNKALPAPIEKTISKAKGQPREPQVYTKPPSREEMTKNQVSLSCLVKGFYPSDIAVEWESNGQPENNYKTTVPVLDSDGSFRLASYLTVDKSRWQQGNVFSCSVMHEALHNHYTQKSLSLSPGK,2.76,
03H01R3 VHH Mono-Fc (Fc fusion) EVQLVESGGGLVQAGGSLRLSCAASGRTSSIYNMGWFRQAPGQEREFVAAIHWGGGRTYYADSVKGRFTISRDNAKNTVYLQMNSLEPGDTANYYCAARRAPELLDDYKQKPEEIGTYHYWGQGTQVTVSSSPAPELLGGPSVFLFPPKPKDTLMISRTPEVTCVVVDVSHEDPEVKFNWYVDGVEVHNAKTKPREEQYNSTYRVVSVLTVLHQDWLNGKEYKCKVSNKALPAPIEKTISKAKGQPREPQVYTKPPSREEMTKNQVSLSCLVKGFYPSDIAVEWESNGQPENNYKTTVPVLDSDGSFRLASYLTVDKSRWQQGNVFSCSVMHEALHNHYTQKSLSLSPGK,0.15,
01C09R3LS VHH Mono-Fc (Fc fusion) EVQLVESGGGLVQAGGSLRLSCAASGRTINTYVMGWFRQAPGKEREFVARIDWSGSSTDYADSVKGRFTISRDNAKNTVYLQMNSLKPEDTAVYYCAGSAYYSGYVTHRDFGSWGQGTQVTVSSSPAPELLGGPSVFLFPPKPKDTLMISRTPEVTCVVVDVSHEDPEVKFNWYVDGVEVHNAKTKPREEQYNSTYRVVSVLTVLHQDWLNGKEYKCKVSNKALPAPIEKTISKAKGQPREPQVYTKPPSREEMTKNQVSLSCLVKGFYPSDIAVEWESNGQPENNYKTTVPVLDSDGSFRLASYLTVDKSRWQQGNVFSCSVMHEALHNHYTQKSLSLSPGK,6.92,93.7
01F03R3LS VHH Mono-Fc (Fc fusion) EVQLVESGGGLVQAGGSLRLSCAASGRTINGYVMGWFRQAPGEEREFVARIDWSGSSTDYADSVKGRFTISRDNAKITVYLQMNSLKPEDTAVYYCAGSAYYSGYVTHRDFGSWGQGTLVTVSSSPAPELLGGPSVFLFPPKPKDTLMISRTPEVTCVVVDVSHEDPEVKFNWYVDGVEVHNAKTKPREEQYNSTYRVVSVLTVLHQDWLNGKEYKCKVSNKALPAPIEKTISKAKGQPREPQVYTKPPSREEMTKNQVSLSCLVKGFYPSDIAVEWESNGQPENNYKTTVPVLDSDGSFRLASYLTVDKSRWQQGNVFSCSVMHEALHNHYTQKSLSLSPGK,10.9,
01G10R3LS VHH Mono-Fc (Fc fusion) EVQLVESGGGLVQAGGSLRLSCAASGRTINTYVTGWFRQAPGKEREFVARIDWSGSSTDYADSVKGRFTISRDNAKNTVYLQMNSLKPEDTAVYYCAGSAYYSGYVTHRDFGSWGQGTQVTVSSSPAPELLGGPSVFLFPPKPKDTLMISRTPEVTCVVVDVSHEDPEVKFNWYVDGVEVHNAKTKPREEQYNSTYRVVSVLTVLHQDWLNGKEYKCKVSNKALPAPIEKTISKAKGQPREPQVYTKPPSREEMTKNQVSLSCLVKGFYPSDIAVEWESNGQPENNYKTTVPVLDSDGSFRLASYLTVDKSRWQQGNVFSCSVMHEALHNHYTQKSLSLSPGK,18.5,287
01E09R3LS VHH Mono-Fc (Fc fusion) EVQLVESGGGLVQAGGSLRLSCAASGRTINTYVMGWFRQAPGKEREFVARIDWSGSSTDYADSVKGRFTTSRDNAKNTVYLQMNGLKPEDTAVYYCAGSAYYSGYVTHRDFGSWGQGTLVTVSSSPAPELLGGPSVFLFPPKPKDTLMISRTPEVTCVVVDVSHEDPEVKFNWYVDGVEVHNAKTKPREEQYNSTYRVVSVLTVLHQDWLNGKEYKCKVSNKALPAPIEKTISKAKGQPREPQVYTKPPSREEMTKNQVSLSCLVKGFYPSDIAVEWESNGQPENNYKTTVPVLDSDGSFRLASYLTVDKSRWQQGNVFSCSVMHEALHNHYTQKSLSLSPGK,8.39,135
01B04R2 VHH Mono-Fc (Fc fusion) EVQLVESGGGLVQAGGSLRLSCAASGRTFTSYTMGWFRQAPGKEREFVAAIKWNGGSTYYADSVKGRFTISRDNAKNTVYLQMNSLKPEDTAVYYCAADGDPYFSPTDGIVWHAPHQSEYDYWGQGTLVTVSSSPAPELLGGPSVFLFPPKPKDTLMISRTPEVTCVVVDVSHEDPEVKFNWYVDGVEVHNAKTKPREEQYNSTYRVVSVLTVLHQDWLNGKEYKCKVSNKALPAPIEKTISKAKGQPREPQVYTKPPSREEMTKNQVSLSCLVKGFYPSDIAVEWESNGQPENNYKTTVPVLDSDGSFRLASYLTVDKSRWQQGNVFSCSVMHEALHNHYTQKSLSLSPGK,16.8,
03A08R3 VHH Mono-Fc (Fc fusion) QVQLVESGGGLVQAGGSLRLSCAASGRTSSIYGMGWFRQAPGKEREFVAAISWSAGRTYHADSVKGRFTISRDNAKNMVYLQMDKMKPGDTAVYYCAARRAPELLSDYTQKPEEIGTYHYWGQGTLVTVSSSPAPELLGGPSVFLFPPKPKDTLMISRTPEVTCVVVDVSHEDPEVKFNWYVDGVEVHNAKTKPREEQYNSTYRVVSVLTVLHQDWLNGKEYKCKVSNKALPAPIEKTISKAKGQPREPQVYTKPPSREEMTKNQVSLSCLVKGFYPSDIAVEWESNGQPENNYKTTVPVLDSDGSFRLASYLTVDKSRWQQGNVFSCSVMHEALHNHYTQKSLSLSPGK,1.97,
02G04R3 VHH Mono-Fc (Fc fusion) QVQLVESGGGLVQAGGSLRLSCAANGRAANAYAVGWFRQAPGKEREFVAHIRWNGGRTAYADSVKGRFTISRDDAKNTVYLQMDSLKPEDTAVYYCAEDTNPDAFGDLRLPSEYEYWGQGTQVTVSSSPAPELLGGPSVFLFPPKPKDTLMISRTPEVTCVVVDVSHEDPEVKFNWYVDGVEVHNAKTKPREEQYNSTYRVVSVLTVLHQDWLNGKEYKCKVSNKALPAPIEKTISKAKGQPREPQVYTKPPSREEMTKNQVSLSCLVKGFYPSDIAVEWESNGQPENNYKTTVPVLDSDGSFRLASYLTVDKSRWQQGNVFSCSVMHEALHNHYTQKSLSLSPGK,1.29,
01D04R3LS VHH Mono-Fc (Fc fusion) EVQLVESGGGLVQAGGSLRLSCAASGRTFRSYAMGWFRQAPGKEREFVADISWRGGRLYYADSVKGRFTISRDNAKNTVYLQMNSLKPEDTAVYYCAATGDQPAFTTAQGMGAMLEYDYWGQGTLVTVSSSPAPELLGGPSVFLFPPKPKDTLMISRTPEVTCVVVDVSHEDPEVKFNWYVDGVEVHNAKTKPREEQYNSTYRVVSVLTVLHQDWLNGKEYKCKVSNKALPAPIEKTISKAKGQPREPQVYTKPPSREEMTKNQVSLSCLVKGFYPSDIAVEWESNGQPENNYKTTVPVLDSDGSFRLASYLTVDKSRWQQGNVFSCSVMHEALHNHYTQKSLSLSPGK,1.16,
01C02R2 VHH Mono-Fc (Fc fusion) EVQLVESGGGLVQAGGSLRLSCAASGRSYAMGWFRQAPGKEREFAAAISWSGSRTYYADAVKGRFTISRDNAKNTVYLQMNSLKPEDTAVYYCAADPDGTVVASSGWTNSYEYGYWGQGTLVTVSSSPAPELLGGPSVFLFPPKPKDTLMISRTPEVTCVVVDVSHEDPEVKFNWYVDGVEVHNAKTKPREEQYNSTYRVVSVLTVLHQDWLNGKEYKCKVSNKALPAPIEKTISKAKGQPREPQVYTKPPSREEMTKNQVSLSCLVKGFYPSDIAVEWESNGQPENNYKTTVPVLDSDGSFRLASYLTVDKSRWQQGNVFSCSVMHEALHNHYTQKSLSLSPGK,0.275,
02C10R3 VHH Mono-Fc (Fc fusion) EVQLVESGGGLVQPGGSLRLSCAASGFTFSSFTMTWFRQAPGKGLGWVSRISSDGTGTNYADSVKGRFTISRDNAKNTLYLRMNSLKPEDTAVYYCAIADDSSTRGQGTLVTVSSSPAPELLGGPSVFLFPPKPKDTLMISRTPEVTCVVVDVSHEDPEVKFNWYVDGVEVHNAKTKPREEQYNSTYRVVSVLTVLHQDWLNGKEYKCKVSNKALPAPIEKTISKAKGQPREPQVYTKPPSREEMTKNQVSLSCLVKGFYPSDIAVEWESNGQPENNYKTTVPVLDSDGSFRLASYLTVDKSRWQQGNVFSCSVMHEALHNHYTQKSLSLSPGK,2.09,
01B05R2 VHH Mono-Fc (Fc fusion) EVQLVESGGGLVQAGGSLRLSCAASGRSLSFDTYAMGWFRQAPGKEREFVASIDWNGGSTYYADSVKGRFTISRDNARNTVNLRMNSLKPDDTAVYYCAAARYYTSGTYFPANYWGQGTQVTVSSSPAPELLGGPSVFLFPPKPKDTLMISRTPEVTCVVVDVSHEDPEVKFNWYVDGVEVHNAKTKPREEQYNSTYRVVSVLTVLHQDWLNGKEYKCKVSNKALPAPIEKTISKAKGQPREPQVYTKPPSREEMTKNQVSLSCLVKGFYPSDIAVEWESNGQPENNYKTTVPVLDSDGSFRLASYLTVDKSRWQQGNVFSCSVMHEALHNHYTQKSLSLSPGK,3.55,177
01H05R3 VHH Mono-Fc (Fc fusion) QVQLVESGGGLVQAGGSLRLSCAASGRSLGFDTYGMAWFRQAPGKEREFVASIDWNGGSTYYADSMKGRFTISRDNAKNTVNLRMNSLKPDDTAVYYCAAARYYTSSTYFPANYWGQGTQVTVSSSPAPELLGGPSVFLFPPKPKDTLMISRTPEVTCVVVDVSHEDPEVKFNWYVDGVEVHNAKTKPREEQYNSTYRVVSVLTVLHQDWLNGKEYKCKVSNKALPAPIEKTISKAKGQPREPQVYTKPPSREEMTKNQVSLSCLVKGFYPSDIAVEWESNGQPENNYKTTVPVLDSDGSFRLASYLTVDKSRWQQGNVFSCSVMHEALHNHYTQKSLSLSPGK,7.54,406
